Assay results: patent US20200165328A1 (Janssen / Centocor, published 2020)

Legend:
rodent Aβ3pE-40 = target: T1, rodent Aβ3pE-40 (rodent, UniProt P12023 674-711, pyroglutamate at the third residue of Aβ (N-terminal residue of this peptide)); experiment: sandwich ELISA, Aβ/pE3/1 coated, detection with JRF/cAβ40/28-HRPO
T1 construct: domain: Aβ3pE-40; Synthetic peptide
T1 peptide (looked up): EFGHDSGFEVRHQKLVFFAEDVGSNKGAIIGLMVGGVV
Description: (§1) Concentrations up to 10,000 […] were tested.
(§2) Standards were dissolved in dimethylsulphoxide (DMSO) (Sigma) at 0.1 mg/mL and stored at −80° C. For use in ELISA, peptides were further diluted in 0.1% casein in PBS down to 1 μg/mL. […] Standards were incubated overnight at 4° C. together with HRPO-labeled secondary antibody (JRF/cAβ40/28-HRPO or JRF/cAβ42/26-HRPO). After overnight incubation, plates were washed and the assay was developed with TMB peroxide EIA substrate kit (Biorad) according to the manufacturer's recommendations.

human Aβ3-42 peptide = target: T2, human Aβ3-42 peptide (human); experiment: sandwich ELISA, Aβ/pE3/1 coated, detection with JRF/cAβ42/26-HRPO
T2 construct: Synthetic peptide; also called N-truncated (Aβ3-42)
Description: as §1, §2

human Aβ1-42 peptide = target: T3, human Aβ1-42 peptide (human); experiment: as above
T3 construct: Synthetic peptide; also called full-length human (Aβ1-42)
Description: as §1, §2

human Aβ3pE-40 peptide [1] = target: T4, human Aβ3pE-40 peptide (human, pyroglutamate at the third residue of Aβ (N-terminal residue of this peptide)); experiment: sandwich ELISA, antibody coated, peptide standard, detection with JRF/cAβ40/28-HRPO
T4 construct: Synthetic peptide (AnaSpec)
Description: (§3) For the selected Aβ3pE monoclonal antibodies, the sensitivity for detection of Aβ3-40 (SEQ ID NO:24) (AnaSpec, Fremont, USA) and Aβ3pE-40 (SEQ ID NO:22) (AnaSpec, Fremont, USA) was evaluated in a sandwich assay using synthetic peptides as standards.
(§4) Standards of Aβ3-40 (SEQ ID NO:24) and Aβ3pE-40 (SEQ ID NO:22) peptides were dissolved in dimethylsulphoxide (DMSO) (Sigma) at 0.1 mg/mL and stored at −80° C. For use in ELISA, peptides were further diluted in 0.1% casein in PBS down to 1 μg/mL. […] Standards were incubated overnight at 4° C. together with HRPO-labeled secondary antibody. After overnight incubation, the plates were washed and the assay was developed with Quantablu substrate (Pierce, Rockford, Ill.) according to the manufacturer's recommendations.

human Aβ3-40 peptide [2] = target: T5, human Aβ3-40 peptide (human); experiment: as above
T5 construct: Synthetic peptide (AnaSpec), N-truncated, no pyroglutamate
Description: as §3, §4

human Aβ3pE-40 peptide [3] = target: T4, human Aβ3pE-40 peptide; experiment: sandwich ELISA: Aβ/pE3/1 coated as capture, peptide titrated, detection with JRF/cAβ40/28-HRPO, net OD 450 nm
Description: as §1, §2

human Aβ3-40 peptide [4] = target: T5, human Aβ3-40 peptide; experiment: as above
Description: as §1, §2

human Aβ1-40 peptide = target: T6, human Aβ1-40 peptide (human); experiment: as above
T6 construct: Synthetic peptide
Description: as §1, §2

human Aβ3pE-40 peptide [5] = target: T4, human Aβ3pE-40 peptide; experiment: SPR (Biacore T200), single cycle kinetics, antibody captured by anti-mouse antibody, peptide 3.125-50 nM, 1:1 fit, mean of n = 6
Description: Immobilization of the anti-mouse antibody was performed via amine coupling on a CM5 sensor chip following the manufacturer's protocol. […] The surface was regenerated with 10 mM glycine HCl at pH 1.7 for at least 180 sec and additional 60 sec. Human Aβ (1-40) peptide was used as a negative control.
Affinity measurements were performed using an optical biosensor T200 (Biacore®). Kinetic analysis was performed according to 1:1 binding fitting model with Biacore T200 Evaluation Software (version 2.0).

T2 sequence (peptide, as listed by the source): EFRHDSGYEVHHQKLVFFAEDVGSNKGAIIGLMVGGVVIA
T3 sequence (peptide, as listed by the source): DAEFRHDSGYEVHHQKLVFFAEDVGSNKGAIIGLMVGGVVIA

B1: Aβ/pE3/1 (antibody, mouse IgG2a, kappa, V domains shown)
VH: QVQLQQPGAELVRPGASVKLSCKTSGYTFTRYWINWVKQRPGQGLEWIGNIRPSDSYTNYNQKFKDKATLTVDKSSSTAYMQLNRPTSEDSAVYYCTREGAYSDYETYWGQGTLVTVSA
VL: not shown
notes: Murine monoclonal; also called Clone 1; antibody from clone 1
- binding result (rodent Aβ3pE-40): no binding (tested: up to 10 ng/mL)
- binding result (human Aβ3-42 peptide): binds
- binding result (human Aβ1-42 peptide): no binding (tested: up to 10 ng/mL)
- EC50 (human Aβ3pE-40 peptide [1]): 26 pM
- EC50 (human Aβ3-40 peptide [2]): 355 pM
- EC50 (read off the curve) (human Aβ3pE-40 peptide [3]): ~0.1 ng/mL
- EC50 (read off the curve) (human Aβ3-40 peptide [4]): ~1 ng/mL
- binding result (human Aβ1-40 peptide): no binding (tested: 10000 pg/ml (LOG 4))
- Kd (human Aβ3pE-40 peptide [5]): 853 pM
